From publication PMC10397247
Values belong to the binder of their own block, whether it stands above or below them.

Assays:
P4 = target: T1, P4; assay: two-hybrid library CC1; settings: mean of both orientations;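 further: natural log of median RNA to DNA barcode read ratio; higher means stronger binding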
T1 chain: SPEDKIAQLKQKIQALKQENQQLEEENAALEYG

P6SC1 = target: T2, P6SC1; assay: two-hybrid library CC1; settings: mean of both orientations;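 further: natural log of median RNA to DNA barcode read ratio; higher means stronger binding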
T2 chain: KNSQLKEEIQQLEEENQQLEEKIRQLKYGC

P9 = target: T3, P9; assay: two-hybrid library CC1; settings: mean of both orientations;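 further: natural log of median RNA to DNA barcode read ratio; higher means stronger binding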
T3 chain: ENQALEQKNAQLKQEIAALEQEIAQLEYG

P5mS = target: T4, P5mS; assay: two-hybrid library CC1; settings: mean of both orientations;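 further: natural log of median RNA to DNA barcode read ratio; higher means stronger binding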
T4 chain: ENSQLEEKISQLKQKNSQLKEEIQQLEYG

P8 = target: T5, P8; assay: two-hybrid library CC1; settings: mean of both orientations
T5 chain: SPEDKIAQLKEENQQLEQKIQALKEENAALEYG

P7mS = target: T6, P7mS; assay: two-hybrid library CC1; settings: mean of both orientations
T6 chain: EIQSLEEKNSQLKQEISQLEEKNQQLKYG

P4mS = target: T7, P4mS; assay: two-hybrid library CC1; settings: mean of both orientations
T7 chain: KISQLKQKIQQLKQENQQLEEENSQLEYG

P6 = target: T8, P6; assay: two-hybrid library CC1; settings: mean of both orientations
T8 chain: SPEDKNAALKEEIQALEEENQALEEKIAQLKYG

P5SC1 = target: T9, P5SC1; assay: two-hybrid library CC1; settings: mean of both orientations
T9 chain: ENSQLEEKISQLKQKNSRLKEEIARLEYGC

P8mS = target: T10, P8mS; assay: two-hybrid library CC1; settings: mean of both orientations
T10 chain: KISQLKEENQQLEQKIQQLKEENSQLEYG

P6SC2 = target: T11, P6SC2; assay: two-hybrid library CC1; settings: mean of both orientations
T11 chain: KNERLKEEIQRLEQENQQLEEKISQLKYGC

P5 = target: T12, P5; assay: two-hybrid library CC1; settings: mean of both orientations
T12 chain: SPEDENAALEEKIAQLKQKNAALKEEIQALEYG

P6mS = target: T13, P6mS; assay: two-hybrid library CC1; settings: mean of both orientations
T13 chain: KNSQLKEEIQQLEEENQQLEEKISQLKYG

P3 = target: T14, P3; assay: two-hybrid library CC1
T14 chain: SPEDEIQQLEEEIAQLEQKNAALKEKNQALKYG

P7 = target: T15, P7; assay: two-hybrid library CC1; settings: mean of both orientations
T15 chain: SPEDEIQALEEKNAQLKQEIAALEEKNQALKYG

P5SC2 = target: T16, P5SC2; assay: two-hybrid library CC1; settings: mean of both orientations
T16 chain: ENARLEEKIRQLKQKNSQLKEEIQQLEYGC

P3mS = target: T17, P3mS; assay: two-hybrid library CC1; settings: mean of both orientations
T17 chain: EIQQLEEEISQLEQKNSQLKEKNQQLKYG

P9bHq = target: T18, P9bHq; assay: two-hybrid library CCNG1
T18 chain: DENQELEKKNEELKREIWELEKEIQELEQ

P1bHq = target: T19, P1bHq; assay: two-hybrid library CCNG1
T19 chain: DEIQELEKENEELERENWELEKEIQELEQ

P4bHq = target: T20, P4bHq; assay: two-hybrid library CCNG1
T20 chain: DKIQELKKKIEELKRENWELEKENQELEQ

P6bHq = target: T21, P6bHq; assay: two-hybrid library CCNG1
T21 chain: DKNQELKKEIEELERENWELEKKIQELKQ

P7bHq = target: T22, P7bHq; assay: two-hybrid library CCNG1
T22 chain: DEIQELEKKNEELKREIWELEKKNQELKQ

P8bHq = target: T23, P8bHq; assay: two-hybrid library CCNG1
T23 chain: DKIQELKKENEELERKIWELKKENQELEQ

P2bHq = target: T24, P2bHq; assay: two-hybrid library CCNG1
T24 chain: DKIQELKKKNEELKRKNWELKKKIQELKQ

P5bHq = target: T25, P5bHq; assay: two-hybrid library CCNG1
T25 chain: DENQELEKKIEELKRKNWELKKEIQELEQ

P3bHq = target: T26, P3bHq; assay: two-hybrid library CCNG1
T26 chain: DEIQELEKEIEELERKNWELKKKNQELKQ

4H170-bN = target: T27, 4H170-bN; assay: two-hybrid library CCNG1
T27 chain: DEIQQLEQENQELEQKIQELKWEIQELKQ

4H683-bN = target: T28, 4H683-bN; assay: two-hybrid library CCNG1
T28 chain: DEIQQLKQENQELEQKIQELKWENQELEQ

4H3926-bN = target: T29, 4H3926-bN; assay: two-hybrid library CCNG1
T29 chain: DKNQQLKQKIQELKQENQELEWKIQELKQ

4H797-bN = target: T30, 4H797-bN; assay: two-hybrid library CCNG1
T30 chain: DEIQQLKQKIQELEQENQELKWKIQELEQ

4H780-bN = target: T31, 4H780-bN; assay: two-hybrid library CCNG1
T31 chain: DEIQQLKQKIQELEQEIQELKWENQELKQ

4H1831-bN = target: T32, 4H1831-bN; assay: two-hybrid library CCNG1
T32 chain: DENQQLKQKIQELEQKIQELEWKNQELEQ

4H457-bN = target: T33, 4H457-bN; assay: two-hybrid library CCNG1
T33 chain: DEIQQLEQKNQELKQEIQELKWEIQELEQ

4H346-bN = target: T34, 4H346-bN; assay: two-hybrid library CCNG1
T34 chain: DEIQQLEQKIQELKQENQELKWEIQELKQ

O15-bS = target: T35, O15-bS; assay: two-hybrid library CCNG1
T35 chain: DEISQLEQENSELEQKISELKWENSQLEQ

4H2586-bN = target: T36, 4H2586-bN; assay: two-hybrid library CCNG1
T36 chain: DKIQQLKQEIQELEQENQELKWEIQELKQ

4H855-bN = target: T37, 4H855-bN; assay: two-hybrid library CCNG1
T37 chain: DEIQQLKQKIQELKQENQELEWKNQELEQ

4H4073-bN = target: T38, 4H4073-bN; assay: two-hybrid library CCNG1
T38 chain: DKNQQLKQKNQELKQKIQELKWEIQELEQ

4H118-bN = target: T39, 4H118-bN; assay: two-hybrid library CCNG1
T39 chain: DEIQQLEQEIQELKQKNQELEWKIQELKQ

4H968-bN = target: T40, 4H968-bN; assay: two-hybrid library CCNG1
T40 chain: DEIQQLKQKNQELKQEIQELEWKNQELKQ

4H3112-bN = target: T41, 4H3112-bN; assay: two-hybrid library CCNG1
T41 chain: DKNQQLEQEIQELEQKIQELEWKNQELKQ

4H2673-bN = target: T42, 4H2673-bN; assay: two-hybrid library CCNG1
T42 chain: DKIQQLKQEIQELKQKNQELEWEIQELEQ

4H3010-bN = target: T43, 4H3010-bN; assay: two-hybrid library CCNG1
T43 chain: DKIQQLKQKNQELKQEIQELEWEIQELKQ

4H3427-bN = target: T44, 4H3427-bN; assay: two-hybrid library CCNG1
T44 chain: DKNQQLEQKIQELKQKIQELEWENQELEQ

4H953-bN = target: T45, 4H953-bN; assay: two-hybrid library CCNG1
T45 chain: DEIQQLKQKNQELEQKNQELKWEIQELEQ

4H2702-bN = target: T46, 4H2702-bN; assay: two-hybrid library CCNG1
T46 chain: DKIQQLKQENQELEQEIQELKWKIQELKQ

4H575-bN = target: T47, 4H575-bN; assay: two-hybrid library CCNG1
T47 chain: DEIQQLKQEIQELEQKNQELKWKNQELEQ

4H754-bN = target: T48, 4H754-bN; assay: two-hybrid library CCNG1
T48 chain: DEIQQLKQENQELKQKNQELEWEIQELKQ

4H2627-bN = target: T49, 4H2627-bN; assay: two-hybrid library CCNG1
T49 chain: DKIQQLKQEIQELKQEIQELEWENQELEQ

4H918-bN = target: T50, 4H918-bN; assay: two-hybrid library CCNG1
T50 chain: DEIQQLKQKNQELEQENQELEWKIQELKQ

Binder: SPEDEIQQLEEEIAQLEQKNAALKEKNQALKYG [P3]
interaction score (P4): 0.154
interaction score (P6SC1): -2.57
interaction score (P9): -2.09
interaction score (P5mS): -2.66
interaction score (P8): -2.6
interaction score (P7mS): -2.58
interaction score (P4mS): 0.336
interaction score (P6): -2.59
interaction score (P5SC1): -2.58
interaction score (P8mS): -2.7
interaction score (P6SC2): -2.04
interaction score (P5): -2.66
interaction score (P6mS): -2.79
interaction score (P3): -2.65
interaction score (P7): -2.61
interaction score (P5SC2): -2.4
interaction score (P3mS): -2.89

interaction score (P9bHq): -1.78
interaction score (P1bHq): -0.606
interaction score (P4bHq): -0.52
interaction score (P6bHq): -0.273
interaction score (P7bHq): -0.288
interaction score (P8bHq): -0.272
interaction score (P2bHq): 1.87
interaction score (P5bHq): -0.887
interaction score (P3bHq): -1.03
Binder: DEIQELEKENEELERENWELEKEIQELEQ [P1bHq]

interaction score (4H170-bN): -1.27
interaction score (4H683-bN): -0.936
interaction score (4H3926-bN): 1.02
interaction score (4H797-bN): -0.885
interaction score (4H780-bN): -0.129
interaction score (4H1831-bN): -0.392
interaction score (4H457-bN): -1.63
interaction score (4H346-bN): -0.129
interaction score (O15-bS): -1.04
interaction score (4H2586-bN): 0.735
interaction score (4H855-bN): 0.221
interaction score (4H4073-bN): -1.59
interaction score (4H118-bN): 0.139
interaction score (4H968-bN): 0.0583
interaction score (4H3112-bN): -0.413
interaction score (4H2673-bN): 1.25
interaction score (4H3010-bN): 2.35
interaction score (4H3427-bN): -0.395
interaction score (4H953-bN): -0.648
interaction score (4H2702-bN): 0.0476
interaction score (4H575-bN): -0.336
interaction score (4H754-bN): -0.655
interaction score (4H2627-bN): 0.463
interaction score (4H918-bN): -0.314
Binder: DEIQQLEQEIQELKQKNQELEWKIQELKQ [4H118-bN]
